Results from the NTF2 design screens of Basanta et al. (2020).

Test: protease stability score; higher = more stable; yeast display proteolysis, trypsin and chymotrypsin;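 also: relative to predicted unfolded state with 0 unfolded-like and 1 meaning tenfold more protease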

Sequence	protease stability score
SEDQEAMDRAIKIFEEIVDTGNERLSRENMDPRTRIVFEGVHLHGREEAVRHHRELWKRVDVMEMRTEDYRFFDGRVHQTTRLHLNYNGREETYETRFLVEKVNGKWFIKSIIIV	0.272
SEDQEEAEHVFEQWIRVLTTGDEETAHKMADPNTRMHFNGKDIHGMDTIAKEFHDLGITLQSIRMRHVERQGDKIHIHSRRTFEVNGVHLNTEVHHSLVKIDGRWTFQHTYVH	0.086
SEDQEESEKFLKDLIRVILTGNEESLMKLADPHARFHIGDKTYIGWDKWVRMLSERVRDLGIRIEIRVHDFHVYNGVAENDHRHHVHFENHEYNHIMILHDDKINGKWTIRTLVIK	1.13
SEDQEIAVKLLHEMMEALRTGDEDYLRRLFDPNMRFNQGDKTHHGMDWVHSFLRRYDYFEVRHVRVHHVEVQGEKIIIDGRLEGSIRVDGVLQENEISVIFIIIKINGKWFVQTIRFN	1.21
SEDQEMSDHASSLLLHTMETGDFRLLHEFLDPNTRVSVNGRDVIGRDETVRHMIEHIKILGVSKVEARLHDVKLINGVAENDVEIDFNGRRIRVWWFVEKINGRWVITHMRVL	1.47
SEDQEVAEKDLEIYSRAITTGNEHELKHLLDPNYKLIVNGQEYHGWETLRHYWKHLRVESVEFEIRSFDSQGDKLHIDGIIILHGEVDGRHTELFEDVHIRAHKINGRWHNKEVNIR	0.897
SEDQHDAEWALRLFVRLHETGDFEEIYRNADPNMRWFVNGVDSHGRENASKLLHKLMDDLGIDHVQIEHVELRVQGEKIIVHMRVTQVINGREVDSRIEVHMEKFDGKWELKHVELRIH	1.31
SEDQHELTTLLEHLLRIHRTGDFHTLERLMDPNTWTLVDGVWFVGREAVEYSNKLIKFTKRIEIDHFEIQGEKATIHGTYHSHYNGREFHIHVTTYYQKINGRWVLHSIEFR	1.38
SEDQKFFEELVRLMYEYSLTGDWELSERLLDPNALIDIDGVEFHGREIFVESMRHIRLDHIEIRHVESINGRIHAKTEVDGTVNGQRRRRDVEIHLLKVNGRWYIRRVNFK	2.45
SEDQREIKDFFKILSKALTTGDEEITSAMMDPHVRMDYNGKEHHGRDFLTELMKRADHWEHRLEVRSVRIIGDKVDVEGHMILHILIGDKEIRVRVDLDIELWKVDGRWIVKEITIK	1.04
SEDREEYHELLKRMIHALMTGDWRDFEKLFDPNARLEVNGQIFHGREDVVKWLRDVLKRYDHIEHFRIRTEEYQGDKIIMDGELHKVINGQHIVTRVRIEVWVVDGRLKRRSEREE	1.51
SEDREFAEKMLRIVSDLENTGDEEKARHLLDPNVRSVIDGQDLIGWHLRRHWLHELRIKSHRVDVHDIHVYNGQIEFNVREDGNIVVNGVEIRIELRTKMTFRKFDGQWYVKSIEIK	1.45
SEDREFMKTDLERWRHDLLTGDEESSHRLADPHVRVYIGDKEFIGREELRRVLREFIERFKGARIEVRLRSLHLIDGRMHIDTEWHIHVGEKHIMLDIKINQDKVNGRWELRNEVIS	1.11
SEDRENFHRFWKELLRYYLTGDEDALTRMFDPNAQMIYGDKHYHGREVLEFIHHQVDVFRSVEIESSRSINGVVIIHVRLNGEYNGQQENTEFTLVFEKINGRWRIKQVRSE	1.11
SEDRENIYRQIREVEEALKTGDEELMLHLMDPHVRIDINGRHNHGREEMVRFIREIRISLKHVDIHHVQDDENELIVHVRVNLVIEVDGKRREEEDNALFIFVKIDGRWVFSIIRIQ	1.76
SEDREQVHRFFEQFSRDTLTGNEERNFEMADPHTRFDIDGRIIIGRDIILHHWKEEMRKHGAEMKIHIHHVRVQGDKATVDLRVEIHINGRTYEYKVVMIVEKIDGRWVLTQIKYE	0.365
SEDRESAKWFVEMELELFLTGDFEKRLHLADPNAKIRIEINGRKHSTHGMREFLEHLLRLGIDVSHVDHIQVENYNGKLEMNLNLDIRIDGQRRHVEIHIIVDKFDGRWVLRELKVNIR	0.642
SEDRKFIKEMFEETFRRWETGDEDHIRRYVDPHTKLRILIDGREHTHHGREEFTKMMIDLSEQLGIKHLHIENLHIQGDKAELRGREEVGDKDEHVTIIAHKVNGQWTIETLHIEVR	-0.376

Sequence	protease stability score
SEDRKLAEILVKITMDILHTGDEEEWLKLLDPHTRIDFDGRDMHGREFFMKVFRDWGIDNIEVHLHDVKVQGDFLDINVSVHINGRKIDHRLIVEKIDGRWIIREFEVR	1.58
SEDRQIAEQIVEDLSTSTVTGDWRLILELLDPDTRIVVDGVDLHGREEFLRFFERIDHMRARRTRLSDFRSYGDKVEADVDIKMEYIVDGRNITERFKERFIIIKVNGRWIVKEWRLK	2.61
SEDSEDAKKVVEISIHTVVTGDEHTNTRLFDPHVRIEIGDKEIHGREKFVHIIRHWRMEAHVEVDEVKRQGDKVRVDGHVRIILDINGRKIDIESQVDVNILKVNGRWLIESEHIH	1.08
SEDSEHAVEYMRLLRESMHTGDEKSWEDMMDPNMRILINGKDLIGWEEFSEFLRRFDHWEIRHVEIKDTKLINGRIELKGRMDIRLTINGKETSHVRNVHILSLKVNGRWILKSIEIE	1.34
SEDSEQALTIIEQLTKNLATGDEDTAEELVDPNVRINIGDKTIHGMHELSRFLLELRSEHRSHIRDVRVQGDKINVEGEDEIIIQVNGQEIRIRKHVHWIIDKIDGVWFVRSVNIH	1.89
SEDSERAREVWEDLFKAILTGDEDLLRELVDPNVRLEIGDKELVGWEHMIYHLRDHLRRYKNMRLELRIRHVEHQGDKLHLNVLLILIQGDKRIEFEVEVLIEKVNGRWILKEIRIK	1.38
SEDTATAHLMVEYFTKSVHTGDEHTTKRQVDPTMRFDFNGKQIIGREKWKEDLLHWRMETTSHVDDFKLQGDKVRSRTTLHMILHFDGVVYHNTYDTEIIYHKVDGRWYFTEFHVR	1.14
SEDTEKIRKFEELLIRLLETGDFDTLTRLLDPHVRYVYNGQDFHGWEFLLHYLRELGVKHFHFRDFRIQGDWAHIDSEVVVGDKHYKTRIVLLKFDGRWRLHMIEVV	2.44
SEDTEMVRIVLEHIEHVWRTGDEHTLRELMDPHVRMDINGREHHGREHVSEIFEQEMRELGADHFRIDHKHVRIINGRIILYLRVKTHIGEKRLDIEIIIILSKVDGRWFIKEISIRHI	1.11
SEDTRIAEELWRIMMDADRTGDEDRSKEMIDPNTQFIFNGRDVIGREVWAELFLRIDHIHLRDVEIHDSEVFNGKIHIDGHVDQEIRIGDKTLVEKVKVELIVLKINGKWLLKEVRFH	1.35
SEDTRLKEEFLRRVLESEHTGDFESLQEMLDPNTRIEFNGQELIGREEAERILHQARIHDVKIKSMRLIDGRIELNGVLDGNFNGRRRHLEVRIYITKIDGRWVLESIEIE	1.49
SEDVEFIVRFIERFWHLLLTGNEEEFEKLLDPHVRIEINGVNLVGREEVTDWFKHIRIDDMRMIFRHSSVVDGRVNVIGALRRDGHINGQRVTEERDTRLHLYKVNGQWFLTEIELH	1.5
SEDVERVRHSIIVWLHILLTGDEETISKYADPNARYVQGDKHHHGMEYIAIKIRELRWSVTMEIEHMHVVDGRAHIEGRLILRIHINGKEDVEDHELELHMIKVDGKWILHEIKIK	1.59
SEDVRDAHEMARIFLEVFRTGNEHHHERMMDPHARVRFDGVDHHGREESTKLLLELWRRVDHLHMDITDLRVQGDKVEVHIRLENRYNGRTHIIHVHLVMIKVDGRWVIREIHFD	0.752
SEEDDDSREVLELFVRLMVTGDFHELAELLDPNVRTHINGKERVGREQMIKILKRLFDEWGVDRVIVHVKHIDVQGEKAHMDGTLIYGDKMQKSHVTLIYVNGRLERIHIELN	1.13
SEEDDQAEEFARKMITDFLTGNWKKMMDLFDPNVRLRWHVDGRDKHHIGREVVSEILRRYVEEIRIHSISIESVENYDGVSIVHSHYEWEVNGQKRETHVLLEFVIINGRARSISIHIH	1.11
SEEDEADHELVQWMLEILQTGDEETFRTFADPSTRHISHIDGKEMHIHGRESASEVLLTTWKELGVDVFHLHQYRYFNGRVDIEFELHQGNKTIELHFHYQIINGRLKRIEIRVHHE	1.14
SEEDEDAMRSAEFLVKKLNTGDEDWYQHLFDPHTKLEIGNFTSHGMHVSLKQWREMGADHVHVQDIDVFDGRVHVRTHIHVNGQTVEVLIILVKVNGRWIVERIRMK	0.66
